Assay: soluble on expression in E. coli; label from the status in PepcDB or PDB records

| Sequence | soluble on expression in E. coli |
| --- | --- |
| MRRVSINSFLEPNSPNVPNRVTIPDGDLRRNSDDTATDRISLTNQLGKSAYSTTTEDSIDSETSETRMDSSRTSEISGNVKEDPVSENQYVLENSESSESIVVDLEMPGMTLRSKASPRKRYMSKKEKDLNDEKKNFKDLVLTIGQNQIQDPDEDFQITKEAIDLLQSESDKILLEMFTSSNAIATAGERDILTPTDIQTARHIQMIMKKYKK | not soluble |
| MVKQIESKTAFQEALDAAGDKLVVVDFSATWCGPCKMIKPFFHSLSEKYSNVIFLEVDVDDAQDVAPKYGIRGIPTLLLFKNGEVAATKVGALSKGQLKEFLDANLV | soluble |
| MPLDSPAKLEFPLHWAVYVDCKDELNELLKNKSTLEIDKIDPRGRTPLMLAVTLQHFDCARLLMDAGADASIPNKEMWSVSNEAVAQGNEQFIQEVIHHRDYQRANRGAHAMKRSLEKLAEVPDFFCEMNWDFSSWVPFLSQACPSDCHKIYKRGSSVRIDTTLVSFEGASWVRGNQSYIFRLSRNGYAEFIVLDHDERIAAVQELRDDDIFNEYRPLPSALDDRLRNTISTTYIDVENIGFERTSRGFLSWFSSGETNETVDGYDCKVLNASNVHLVTKRRFDHLSSEARARLAQEEASESKAVTSFKKMMSTNKTDENTTRDLYEEGLSPDSYLDPHYEFDTGCDIGKRREVVKKSNAFQATLWMADEYPLNLHDQIIPIVELMAVNSPHFARLHNFIRLQLPAGFPVKIEIPLFHIVSARIAFQNINSPGKHVTPIDNQNVDIEEEAFEIPDGYAIDDDGRYGITWEDDDDRNNRNNRNQVANGNTSRRGLGNNYSDDMLLQYAIQQSLLESTARQPSRVQEEEYVDILEQIESVPVNPETDFYRAIRDSQVEEDRRRREDEQYEEDLRKVLELSKAEQ | not soluble |
| MDGEELREDLKEKGKTMDNDLKKSLKEAPSESYCYVLINPYVLDKDVREVDLATFLSSIFYVGKGKGERAMAYFKDACGNIQGSRKLTTIDQAWNKKGFVYKHIIWRPIIENLALAREAAMIFFFKNLAGKSNFTNKYNGSFKGESAFWSREEKCNYGVYLLETIHRSIQTNGCETVKKEDVAPRAAIQQSPRL | not soluble |
| MKLLRYGPVGEERPALLDELGEIRDLSAHIEDISGKFLLPATLYKLRQLDSASLPLVRGEQRLGACVGHVGKFICVGLNYADHAAETGAEIPQEPVIFNKWTSAIIGPNDDIEIPRNSVKTDWEVELGVVIGTGGRYIGEANAMSYVAGYCVVNDISEREFQLEHGGTWDKGKGCDTFGPIGPWLVTRDEIPDPHQLGLWLDVDGRRYQNGSTRTMIFKIPQIISYLSRFMSLQSGDVISTGTPPGVGLGQKPPVYLHAGQIMRLGIEGLGEQCQKTIQA | not soluble |
| DPQSVETALNVAREGLVLLKNENNILPINPQKYKHIIVTGKNAHGYVHGGGSGAVVPFHYTNLFDGIQKEGKLNNVKVEYIDELDFMPSIMYTDDNLNEKGFHAEYFKNIHFEGAPVVKQTEKKINYSWAAGTELEGMPKDYFSVKWYSTMCVDETADYEFTLGGDDGYKLFINDQPIIDDWTPGGFRTTNVTKTLKAGEKYHVRVEYYQQGGGAGICFLWKRKNETQNKFADYLNKADLVIACFGHSSDTEGEASDRTFELPEVDKKMLASLSGCKKPVIGIVNAGGNIEMQKWEPSLKGLIWGFYGGQEAGTAIGEALFGKVNPSGKLPMTFEKKWEDSPAYNSYHDPDKDKHVAYTEGIFIGYRGYDKLKREVQYPFGYGLSYTTF | not soluble |
| MRKDRVTQGVDRIMQAIADKEFELGQAIPGEAKLAEFLDVSRPTMREVVRTLADRGVLEVVHGRGTFVAPLDHWSDVRSRVDFISRTLSPGEVGFHLTEVRRMIEVGSCGHAAARAEDCDLDRMQTALDAYDAALEAHDVAGIAKSDVEFHNAIFEATKNPVVTALMIPLEGELAASRLRTSAVSEVAERAQEHHRRIYSAIKASDEEGAKNAMRAHMSQTFDDLQRFVGEY | not soluble |
| MPTYKLTYFNARGYAEAARILFHLADVPFEDFRMTHGDGTWEKLKDGAPFGQVPYLTVDGFDIPQSAAIIRYLANKFGYAGKTPEEQVWADAIVDQFKDFMGSFRERIMAHFAGKSQEEIAKITSEVVIPARDSYFKILNGLLEKSKSGFLVGDSITFADIVISENITTLEKNQLFVASEQPNLAALREKVYAIPAIRKWVEARPDTQY | not soluble |
| MSLIYFETERLIARDYLTNDYLPFSQMNADEQVMKYFPARLTQNESNAFLDRIQEELKSLGYGLFAIEVKSTGEFIGFTGFHEATFEATFTPCTEIGWRLKHSAWNQGYATEAALGALALAEEINTINEIYSFTAALNKPSENVMKKIHLTKIATFEHPALVNGDPLKPHVLYKKAEGHHHHHH | soluble |
| SLRPIPYLPNMIGLITGRASAAERDVTTVASARWPAARFAVRNVAVQGPNAVGQIVEALRELDRDPDVDVIVLARGGGSVEDLLPFSDETLCRAIAACRTPVVSAVGHEPDNPLCDLVVDLRAATPTDAAKKVVPDTAAEQRLIDDLRRRSAQALRNWVSREQRAVAQLRSRPVLADPMTMVSVRAEEVHRARSTLRRNLTLMVAAETERIGHLAARLATLGPAATLARGYAIVQTVAQTGPEGGSEPQVLRSVHDAPEGTKLRVRVADGALAAVSEGQTNGL | soluble |
| SNAMADKIKVGLLGYGYASKTFHAPLIMGTPGLELAGVSSSDASKVHADWPAIPVVSDPQMLFNDPSIDLIVIPTPNDTHFPLAQSALAAGKHVVVDKPFTVTLSQANALKEHADDAGLLLSVFHNRRWDSDFLTLKTLLAEGSLGNVVYFESHFDRYRPEIRQRWREQAGAGGGIWYDLGPHLLDQALQLFGLPETLNVDLGMLRPGSQSVDYFHAVLSYPGQRVVLHSTVLAAAETARYIVHGTQGSYIKFGVDPQEDRLKAGERLPQADWGYDMRDGIVTLSHDNVLTEKPLLTLPGNYPAYYAGIRDAIWGTAPNPVPATEAIKVMELIELGIASDQQKKALPIIAKN | soluble |
| MEGLINALKYLAEHEPIDNFEEIRTRNSPIELPSGLSNFEQNIFLKENLSPKLQNDDSLKTHYWIIREWGGIKSFKQSAENSQLIRQFLSELNSGKLSSGLLKISSLSKLASFIDCERFAIYDSRAIFSLNWLLFKFTNADLFFQPQGRNRELEIRNMNVLFHFSDIKPNYRKPDVSFHQYCGLLQDLAKQVYGKQAKPYHIEMLLFKIATTWICADMDQLIKFDCLRNQDFQTA | not soluble |
| MSLRLPPPDARPIRVVCISDTHTLELADMPDGDLLIHAGDLCNDGSAKEIQAAVDWLRKLPHPQKVVICGNHDSYFDIRSRRFEDRDQSLATVSSSTASLRSVDDFDFPHCIDWGDIHYLQHSSVTVTFPPLPQTPSSSSALLASRPRSLTIYGAPQIPAIVPFGPEHAFAYPAHHDAWSGTIPPNTDIMVTHTPPQSHLDLSPVFSTGCPFLLSEAWRIRPALHVFGHVHAAYGREPVYWDEAQKAWERICSSRREGHHHHHH | not soluble |
| MTGTERKVFQKYYPPDFDPSKIPRAKGQKNRQFVQRVMTPFNMQCNTCHEYIYKGKKFNMKRETAEGETYLGLKLFRFYFRCPNCLAEITFKTDLENCDYQNEHGATRLFEAVKLYQDQQKQVDEQEAEDAKDPMKMLEKRTMQSRQEMEEMGNLEDLQESSRTKECIDTIGFLSSTDPHIAQAQRIKMMEDEDDRMARELMGITSEGRIERRIKDDEDNSDGADEDDKDIPGPSASVVPSTSSMLKPAIPKLGMDDSGNSRKRNEQRDRFAGIKLIKKAKPSEPSTSSTASSTSSAPPPLPSSAASSGLSLLADYGSGSDSD | not soluble |
| MPRRALGWTAEVLKRLHGINYPITKDTLREKLAGMSIRGVPVERVIDEIEVDKFDTPRDVLHYIAEAVHKLEERGEIPTETRKGIRWAAEVLKRIHGEHFPMDKQKLKEKLAGLYWRGVPIEKVIDAMEVEQVESPADLLHQLSIAIKKLEEQGEVA | not soluble |
| TKAVTFYEDINYGGASVSLQPGNYTLSQLNTAKIPNDWMTSLKVPSGWTVDVYENDNFTGTKWTYTSDTPWVGNDANDKMTSVKIYST | soluble |
| SLIRGWLAEGERMKETSYYSYVVGELPKGCQYCVRGEKLVLFVTGVCPRNCFYCPLSPWRRKDVAYANERPIRKIEDIIEEAKIQEARGAGVTGGDPLARLNRTVEYIRTLKEEFGKKFHIHLYTTGILADKRALSMLYDAGLDEIRFHPDLFEPSSKFLNREIENLKNAFDFDWDVGGEVPAVPGFGDRIKWFAEILDKFGGKFLNINELEYSETNLSNILNRGFKLAGENSFAIKGSLELGLEILEWGEKNTSLYYHLCTAKLKDAVQLRNRLRRMAKNVAKPYMEITEDGTLRFGIAEYEDLEELYKFLVEEAEVPKEWLYINWEKKRIEMPVEVAEELAEAIEGDVKFYIVEEYPTWDRIEVERIPLNEG | soluble |
| GPGMATEEMKKLATVMAIGTANPPNCYYQADFPDFYFRVTNSDHLINLKQKFKRLCENSRIEKRYLHVTEEILKENPNIAAYEATSLNVRHKMQVKGVAELGKEAALKAIKEWGQPKSKITHLIVCCLAGVDMPGADYQLTKLLDLDPSVKRFMFYHLGCYAGGTVLRLAKDIAENNKGARVLIVCSEMTTTCFRGPSETHLDSMIGQALFGDGAAAVIVGADPDLTVERPIFELVSTAQTIVPESHGAIEGHLLESGLSFHLYKTVPTLISNNIKTCLSDAFTPLNISDWNSLFWIAHPGGPAILDQVTAKVGLEKEKLKVTRQVLKDYGNMSSATVFFIMDEMRKKSLENGQATTGEGLEWGVLFGFGPGITVETVVLRSVPVIS | soluble |
| GDYYDYLFKIVLIGDSGVGKSNLLSRFTRDEFNLESKSTIGVEFATKSIQLKNNKIIKAQIWDTAGQERYRAITSAYYRGAVGALLVYDITKKNSFENIEKWLKELRDNADSNIVILLVGNKSDLKHLRVINDNDATQYAKKEKLAFIETSALEATNVELAFHQLLNEIYNVRQKKQATKN | soluble |
| MFFNLRKNKKRLGWFNNGEVEAVAKDLGVAPSEVREMEARLAAQDSTFEAPAEDDDRDMAFTAPVYYLEDKQSDVAYSLEEDNWEDYTNNRLANAIATLDERSQHIVQSRWLADEKATLQELADTYQVSAERIRQLEKNAMKKLKDAVGDVL | not soluble |
| MSLRVRIAVIGKLDGFIKEGIKHYEKFLRRFCKPEVLEIKRVHRGSIEEIVRKETEDLTNRILPGSFVMVMDKRGEEVSSEEFADFLKDLEMKGKDITILIGGPYGLNEEIFAKAHRVFSLSKMTFTHGMTVLIVLEQIFRAFKIIHGENYHYEGGSHHHHHH | soluble |
| MGSDKIHHHHHHMTSQYKASRFATPRDMPEQTYRLSNVCLPAPLSMGELETFSAISRQVSPLRKRHTLFEQGEAFRSLYIVRCGSLKQVYRDITREEHVTQFYLPGEVVGLDALSSGFHPGATIALETTSVCEIGPESIEELAHGDRTERGVGGCFLRVMSRAMHQERMMVRLFLNRTSDVRLASFLLALSGRFRQQGYSPFCFRLSMSRSDIGNYLGLAVETVSRLLGRFQHLGLLTAKGREIRIDDLEALAALADGRSRHSIWDTADEAPERLASMSTH | not soluble |
| MSAFPVHAAFEKDFLVQLVVVDLNDSMDQVAEKVAYHCVNRRVAPREGVMRVRKHRSTELFPRDMTIAESGLNPTEVIDVVFEE | soluble |
| QTIRSASDIRDVFINAGIKGEEYDAAWNSFVVKSLVAQQEKAAADVQLRGVPAMFVNGKYQLNPQGMDTSNMDVFVQQYADTVKYLSEKKGGGTGAQYEDGKQYTTLEKPVAGAPQVLEFFSFFCPHCYQFEEVLHISDNVKKKLPEGVKMTKYHVNFMGGDLGKDLTQAWAVAMALGVEDKVTVPLFEGVQKTLIK | soluble |
| MIKTLKEHTKIVRSVTFSPNGKYLAVGDICGTVEIWRVL | soluble |
| MNVETIREYCLSKKGVTESFPFDDVSLVMKVLDKMFALIDLEGANSISLKCDPERAIELREHYAGIEGAYHFNKKYWNGVYFDRDVDDKLIKELVDHSYEEVIKKFTKKLRAEYDALP | not soluble |

— the DeepSol protein solubility set
